From PMC3044691 come the findings set out here.

Where two headings read alike, the source gives them in different places. Bounds are passed on as bounds.

For assay [1], the target named is integrin α4β7 (human (endogenous in primary CD4+ T cells)) (UniProt P13612). Put plainly: flow cytometry on cells; α4β7-reactivity: biotinylated gp120 on retinoic acid-cultured primary CD4+ T cells with CD4 masked by unlabeled mAb Leu3A (α4 mAb HP2/1 as specificity control); HBS with 100 µM CaCl2 and 1 mM MnCl2, on ice; Neutravidin PE; MFI of the CD45RO+/CCR5+ gate; steady state.

Assay [2] addresses integrin α4β7, P13612;P26010. Briefly: steady-state binding assay on primary α4β7+/CD4+ T-cells (flow cytometry, MFI). As to conditions: read off a plot. (Flow cytometry measures light scatter and fluorescence of single cells or particles in a stream.)
The target in assay [3] is integrin α4β7 (human (endogenous in primary CD4+ T cells)) (UniProt P13612). Briefly: flow cytometry on cells; α4β7-reactivity: biotinylated gp120 on retinoic acid-cultured primary CD4+ T cells with CD4 masked by unlabeled mAb Leu3A (α4 mAb HP2/1 as specificity control); HBS with 100 µM CaCl2 and 1 mM MnCl2, on ice; Neutravidin PE; MFI of the CD45RO+/CCR5+ gate; steady state. This is another data set of the same source.

Setting [4] is: first point, plotted at x = 0 µg gp120, parent: est. 20.

For AN1 N204Q gp120, in assay [1], the fold increase in α4β7-reactivity over AN1 w.t. expressed in CHO-S cells was found to be 23 fold.

Consider “QA203M41 chimeric gp120 (V1/V2 of QA203M41 in a Q23 backbone) N66Q; N67Q”, for which the response is 50 MFI in assay [2] (setting [4]); 180 MFI in assay [2] (gp120 2 µg, parent: est. 30); 280 MFI in assay [2] (gp120 4 µg, parent: est. 50).

For AN1 NN140/143QQ gp120, the fold increase in α4β7-reactivity over AN1 w.t. expressed in CHO-S cells in assay [1] is 25 fold.

Consider 93MW959 w.t. gp120 (subtype C) N145Q, for which, in assay [2] (parent: est. 300), the response stood at 550 MFI.

92Ug037N385Q gp120 (natural protein) registered a fold increase in α4β7-reactivity over w.t. 92Ug037 in assay [1] of 8 fold.

92Ug037 w.t. gp120 (subtype A) N133Q: the response in assay [2] (parent: est. 27) turned out to be 72 MFI.

92Ug037N144Q gp120 (natural protein) displayed a fold increase in α4β7-reactivity over w.t. 92Ug037 in assay [1] of 20 fold.

On to “AN1 w.t. gp120 expressed in CHO lec1 cells”, for which the fold α4β7-reactivity over CHO S AN1 w.t. gp120 in assay [1] is 100 fold; in assay [3], more than 100 fold.

In the case of 92Ug037 w.t. gp120 (subtype A) N137Q, the response in assay [2] (parent: est. 27) stood at 160 MFI.

Take “QA203M41 chimeric gp120 (V1/V2 of QA203M41 in a Q23 backbone) N22Q; N25Q; N66Q; N67Q”: the response came out at 200 MFI in assay [2] (setting [4]); 410 MFI in assay [2] (gp120 1 µg, parent: est. 25); 750 MFI in assay [2] (gp120 2 µg, parent: est. 30); 1300 MFI in assay [2] (gp120 4 µg, parent: est. 50).

As for 92Ug037N355Q gp120 (natural protein), the fold increase in α4β7-reactivity over w.t. 92Ug037 in assay [1] was 27 fold.

For “Z205F.ENV1.1 0Mfounder gp120 (natural protein)”, in assay [1], the fold bound to α4β7 over bound to CD4 is 37 fold; the fold α4β7-reactivity over the 0-month escape gp120 came to 8 fold; the fold α4β7-reactivity over the 8- and 38-month escape gp120s was more than 17 fold.

In the case of “QA203M41 chimeric gp120 (V1/V2 of QA203M41 in a Q23 backbone) N22Q; N25Q”, the response stood at 300 MFI in assay [2] (setting [4]); 270 MFI in assay [2] (gp120 0.5 µg, parent: est. 20); 580 MFI in assay [2] (gp120 1 µg, parent: est. 25); 600 MFI in assay [2] (gp120 1 µg, parent: est. 45); 1400 MFI in assay [2] (gp120 2 µg, parent: est. 30); 1300 MFI in assay [2] (gp120 2 µg, parent: est. 110). Also, the response in assay [2] (gp120 4 µg, parent: est. 50) was determined as 1700 MFI; in assay [2] (gp120 4 µg, parent: est. 230), 2000 MFI.

Regarding 93MW959 w.t. gp120 (subtype C) N139Q, the response in assay [2] (parent: est. 300) is 500 MFI.

As to “92Ug037 w.t. gp120 (subtype A) N187Q; N188Q”, the response in assay [2] (parent: est. 27) was determined as 540 MFI.

In the case of AN1 NN140/143QQ,N204Q gp120, the fold increase in α4β7-reactivity over AN1 w.t. expressed in CHO-S cells in assay [1] turned out to be 96 fold.
